The labels stand for the following.
B1: N^ε24-[(4S)-4-carboxy-4-[[(4S)-4-carboxy-4-[[(4S)-4-carboxy-4-[[(4S)-4-carboxy-4-(17-carboxyheptadecanoylamino)butanoyl]amino]butanoyl]amino]butanoyl]amino]buta … (peptide)
peptide: HSQGTFTSDYSKYLDLRRAQDFVK([γGlu-γGlu-γGlu-γGlu-C18 diacid])WLLST-NH2
modifications: N-terminus assumed
SMILES: CC(C)C[C@H](NC(=O)[C@H](CC(=O)O)NC(=O)[C@H](CC(C)C)NC(=O)[C@H](Cc1ccc(O)cc1)NC(=O)[C@H](CCCCN)NC(=O)[C@H](CO)NC(=O)[C@H](Cc1ccc(O)cc1)NC(=O)[C@H](CC(=O)O)NC(=O)[C@H](CO)NC(=O)[C@@H](NC(=O)[C@H](Cc1ccccc1)NC(=O)[C@@H](NC(=O)CNC(=O)[C@H](CCC(N)=O)NC(=O)[C@H](CO)NC(=O)[C@@H](N)Cc1c[nH]cn1)[C@@H](C)O)[C@@H](C)O)C(=O)N[C@@H](CCCNC(=N)N)C(=O)N[C@@H](CCCNC(=N)N)C(=O)N[C@@H](C)C(=O)N[C@@H](CCC(N)=O)C(=O)N[C@@H](CC(=O)O)C(=O)N[C@@H](Cc1ccccc1)C(=O)N[C@H](C(=O)N[C@@H](CCCCNC(=O)CC[C@H](NC(=O)CC[C@H](NC(=O)CC[C@H](NC(=O)CC[C@H](NC(=O)CCCCCCCCCCCCCCCCC(=O)O)C(=O)O)C(=O)O)C(=O)O)C(=O)O)C(=O)N[C@@H](Cc1c[nH]c2ccccc12)C(=O)N[C@@H](CC(C)C)C(=O)N[C@@H](CC(C)C)C(=O)N[C@@H](CO)C(=O)N[C@H](C(N)=O)[C@@H](C)O)C(C)C
B2: N^ε24-[(4S)-4-carboxy-4-[[(4S)-4-carboxy-4-[[(4S)-4-carboxy-4-[[(4S)-4-carboxy-4-(17-carboxyheptadecanoylamino)butanoyl]amino]butanoyl]amino]butanoyl]amino]buta … (peptide)
peptide: HSQGTFTSDYSKYLDVRRAQDFVK([γGlu-γGlu-γGlu-γGlu-C18 diacid])WLLST-NH2
modifications: N-terminus assumed
SMILES: CC(C)C[C@H](NC(=O)[C@H](Cc1c[nH]c2ccccc12)NC(=O)[C@H](CCCCNC(=O)CC[C@H](NC(=O)CC[C@H](NC(=O)CC[C@H](NC(=O)CC[C@H](NC(=O)CCCCCCCCCCCCCCCCC(=O)O)C(=O)O)C(=O)O)C(=O)O)C(=O)O)NC(=O)[C@@H](NC(=O)[C@H](Cc1ccccc1)NC(=O)[C@H](CC(=O)O)NC(=O)[C@H](CCC(N)=O)NC(=O)[C@H](C)NC(=O)[C@H](CCCNC(=N)N)NC(=O)[C@H](CCCNC(=N)N)NC(=O)[C@@H](NC(=O)[C@H](CC(=O)O)NC(=O)[C@H](CC(C)C)NC(=O)[C@H](Cc1ccc(O)cc1)NC(=O)[C@H](CCCCN)NC(=O)[C@H](CO)NC(=O)[C@H](Cc1ccc(O)cc1)NC(=O)[C@H](CC(=O)O)NC(=O)[C@H](CO)NC(=O)[C@@H](NC(=O)[C@H](Cc1ccccc1)NC(=O)[C@@H](NC(=O)CNC(=O)[C@H](CCC(N)=O)NC(=O)[C@H](CO)NC(=O)[C@@H](N)Cc1c[nH]cn1)[C@@H](C)O)[C@@H](C)O)C(C)C)C(C)C)C(=O)N[C@@H](CC(C)C)C(=O)N[C@@H](CO)C(=O)N[C@H](C(N)=O)[C@@H](C)O
B3: N^ε24-[(4S)-4-carboxy-4-[[(4S)-4-carboxy-4-[[(4S)-4-carboxy-4-[[(4S)-4-carboxy-4-(17-carboxyheptadecanoylamino)butanoyl]amino]butanoyl]amino]butanoyl]amino]buta … (peptide)
peptide: HSQGTFTSDYSKYLDIRRAQDFVK([γGlu-γGlu-γGlu-γGlu-C18 diacid])WLLST-NH2
modifications: N-terminus assumed
SMILES: CC[C@H](C)[C@H](NC(=O)[C@H](CC(=O)O)NC(=O)[C@H](CC(C)C)NC(=O)[C@H](Cc1ccc(O)cc1)NC(=O)[C@H](CCCCN)NC(=O)[C@H](CO)NC(=O)[C@H](Cc1ccc(O)cc1)NC(=O)[C@H](CC(=O)O)NC(=O)[C@H](CO)NC(=O)[C@@H](NC(=O)[C@H](Cc1ccccc1)NC(=O)[C@@H](NC(=O)CNC(=O)[C@H](CCC(N)=O)NC(=O)[C@H](CO)NC(=O)[C@@H](N)Cc1c[nH]cn1)[C@@H](C)O)[C@@H](C)O)C(=O)N[C@@H](CCCNC(=N)N)C(=O)N[C@@H](CCCNC(=N)N)C(=O)N[C@@H](C)C(=O)N[C@@H](CCC(N)=O)C(=O)N[C@@H](CC(=O)O)C(=O)N[C@@H](Cc1ccccc1)C(=O)N[C@H](C(=O)N[C@@H](CCCCNC(=O)CC[C@H](NC(=O)CC[C@H](NC(=O)CC[C@H](NC(=O)CC[C@H](NC(=O)CCCCCCCCCCCCCCCCC(=O)O)C(=O)O)C(=O)O)C(=O)O)C(=O)O)C(=O)N[C@@H](Cc1c[nH]c2ccccc12)C(=O)N[C@@H](CC(C)C)C(=O)N[C@@H](CC(C)C)C(=O)N[C@@H](CO)C(=O)N[C@H](C(N)=O)[C@@H](C)O)C(C)C

This note sets out measurements from US20130079278A1 (Novo Nordisk, published 2013).

*1 amine or outer side, *2 acyl side, *3 side chain or, on linkers, in order; H or OH if unused. Where no end group is shown, it is not given here. Side-chain parts run from the residue outwards. The star is where a group is joined. C18 diacid = O=C(O)CCCCCCCCCCCCCCCCC(=O)*; C16 diacid = O=C(O)CCCCCCCCCCCCCCC(=O)*; γGlu = O=C(O)[C@H](CCC(=O)[*:2])N[*:1]; AEEA = NCCOCCOCC(=O)O

glucagon receptor, sequence (P47871 26-477): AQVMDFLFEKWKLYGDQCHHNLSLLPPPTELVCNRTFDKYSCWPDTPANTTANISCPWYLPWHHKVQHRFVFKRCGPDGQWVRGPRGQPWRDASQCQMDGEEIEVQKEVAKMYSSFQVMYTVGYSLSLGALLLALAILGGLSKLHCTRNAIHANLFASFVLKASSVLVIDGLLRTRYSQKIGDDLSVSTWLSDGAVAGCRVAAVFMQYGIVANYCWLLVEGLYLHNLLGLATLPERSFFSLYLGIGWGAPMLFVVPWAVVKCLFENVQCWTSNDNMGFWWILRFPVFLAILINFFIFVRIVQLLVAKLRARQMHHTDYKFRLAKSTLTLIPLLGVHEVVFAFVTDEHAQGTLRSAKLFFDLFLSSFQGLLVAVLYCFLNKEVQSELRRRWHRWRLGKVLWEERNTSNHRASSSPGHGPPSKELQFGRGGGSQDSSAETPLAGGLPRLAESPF

This assay concerns the target glucagon receptor (human, UniProt P47871 26-477). In words: cell-based or functional assay.
For B1, the “Assay (I) Glucagon [EC50]” value came to 0.812 nM.

As for HSQGTFTSDYSRYLDARRAQDFVK([γGlu-γGlu-γGlu-γGlu-C18 diacid])WLLST, the “Assay (I) Glucagon [EC50]” value was found to be 0.062 nM.

HSQGTFTSDYSKYLDTRRAQDFVK([γGlu-γGlu-AEEA-AEEA-γGlu-C16 diacid])WLLST: the “Assay (I) Glucagon [EC50]” value is 0.017 nM.

With HSQGTFTSDYSKYLDVRRAQDFVK([γGlu-γGlu-γGlu-γGlu-C18 diacid])WLLST, the “Assay (I) Glucagon [EC50]” value was 0.134 nM.

HSQGTFTSDYSKYLDLRRAQDFVK([γGlu-γGlu-γGlu-γGlu-C18 diacid])WLLST: the “Assay (I) Glucagon [EC50]” value was 0.126 nM.

Regarding HSQGTFTSDYSKYLDVRRAQDFVK([γGlu-γGlu-AEEA-AEEA-γGlu-C16 diacid])WLLST, the “Assay (I) Glucagon [EC50]” value was 0.009 nM.

As to HSQGTFTSDYSKYLDARRAQDFVK([γGlu-γGlu-AEEA-AEEA-γGlu-C16 diacid])WLLST, the “Assay (I) Glucagon [EC50]” value is 0.016 nM.

On to HSQGTFTSDYSRYLDLRRAQDFVK([γGlu-γGlu-γGlu-γGlu-C18 diacid])WLLST, for which the “Assay (I) Glucagon [EC50]” value worked out at 0.343 nM.

Take HSQGTFTSDYSKYLDERRAQDFVK([γGlu-γGlu-AEEA-AEEA-γGlu-C16 diacid])WLLST: the “Assay (I) Glucagon [EC50]” value was found to be 0.017 nM.

As to HSQGTFTSDYSKYLDIRRAQDFVK([γGlu-γGlu-AEEA-AEEA-γGlu-C18 diacid])WLLNT, the “Assay (I) Glucagon [EC50]” value came to 0.081 nM.

In the case of HSQGTFTSDYSRYLDTRRAQDFVK([γGlu-γGlu-AEEA-AEEA-γGlu-C16 diacid])WLLST, the “Assay (I) Glucagon [EC50]” value is 0.025 nM.

With B2, the “Assay (I) Glucagon [EC50]” value came to 0.268 nM.

For HSQGTFTSDYSRYLDARRAQDFVK([γGlu-γGlu-γGlu-C18 diacid])WLLST, the “Assay (I) Glucagon [EC50]” value was 0.066 nM.

Consider HSQGTFTSDYSKYLDLRRAQDFVK([γGlu-γGlu-AEEA-AEEA-γGlu-C16 diacid])WLLST, for which the “Assay (I) Glucagon [EC50]” value came to 0.039 nM.

As to HSHGTFTSDYSKYLETRRAQDFVK([γGlu-γGlu-AEEA-AEEA-γGlu-C18 diacid])WLLNT, the “Assay (I) Glucagon [EC50]” value came to 0.036 nM.

As to HSQGTFTSDYSRYLDLRRAQDFVK([γGlu-γGlu-AEEA-AEEA-γGlu-C18 diacid])WLLAT, the “Assay (I) Glucagon [EC50]” value was 0.253 nM.

As to HSQGTFTSDYSRYLDARRAQDFVK([γGlu-γGlu-AEEA-AEEA-γGlu-C16 diacid])WLLST, the “Assay (I) Glucagon [EC50]” value was found to be 0.022 nM.

Regarding HSQGTFTSDYSRYLDLRRAQDFVK([γGlu-γGlu-AEEA-AEEA-γGlu-C18 diacid])WLLGT, the “Assay (I) Glucagon [EC50]” value came to 0.47 nM.

In the case of B3, the “Assay (I) Glucagon [EC50]” value worked out at 0.402 nM.

Regarding HSQGTFTSDYSRYLDLRRAQDFVK([γGlu-γGlu-AEEA-AEEA-γGlu-C16 diacid])WLLGT, the “Assay (I) Glucagon [EC50]” value came to 0.09 nM.

Consider HSQGTFTSDYSRYLDVRRAQDFVK([γGlu-γGlu-AEEA-AEEA-γGlu-C16 diacid])WLLST, for which the “Assay (I) Glucagon [EC50]” value came to 0.026 nM.

Take HSQGTFTSDYSRYLDLRRAQDFVK([γGlu-γGlu-AEEA-AEEA-γGlu-C16 diacid])WLLAT: the “Assay (I) Glucagon [EC50]” value turned out to be 0.064 nM.

With HSQGTFTSDYSRYLDERRAQDFVK([γGlu-γGlu-AEEA-AEEA-γGlu-C16 diacid])WLLST, the “Assay (I) Glucagon [EC50]” value came out at 0.029 nM.

Regarding HSQGTFTSDYSKYLDIRRAQDFVK([γGlu-γGlu-γGlu-γGlu-C18 diacid])WLLST, the “Assay (I) Glucagon [EC50]” value came out at 0.189 nM.

As for HSQGTFTSDYSRYLDLRRAQDFVK([γGlu-γGlu-γGlu-C16 diacid])WLLST, the “Assay (I) Glucagon [EC50]” value stood at 0.027 nM.
